The labels stand for the following.
B1: TRL10051 (antibody, IgG1, V domains shown)
VH: QVQLVESGGGLVQPGGSLRLSCAASGFTFSSYVMSWVRQAPGKGLEWVSSIRVSGDRAHYADSVKGRFTVSRDDSKNTVYLQMNSLRVEDTAVYYCVKDQAERLLRAVTTHFDYWGQGALVTVSS
VL: DIVMTQSPLSSPVTLGQPASISCRSSQSLVHSDGNTYLSWLQQRPGQPPRLLIYKVSRRFSGVPDRFSGSGAGTDFTLKISRVEAEDVGIYYCMQASQFPRTFGQGTKVEIKR
notes: Native human mAb from donor 223
B2: TRL10005 (antibody, IgG1, V domains shown)
VH: QVQLVESGGGLVKPGGSLRLSCAASGFTFNDHYMTWIRQAPGKGLEWISYISSSGGTIFYAESVKGRFTISRDNANNILFLQMNSLRAEDTAVYYCARGALRFLEWSHLGSWGQGTLVTVSS
VL: DIVLTQSPGTLSLSPGERATLSCRASQRVSSSYLAWFQQKPGQAPRLLIYGASTRATGIPDRFSGSGSGTDFTLTISRLEPEDFAVYYCQQYGMSSWTFGQGTKVEIKR
notes: Native human mAb from donor 236
B3: TRL10014 (antibody, IgG1, V domains shown)
VH: QVQLVESGGGLVKPGGSLRLSCTASGFSFSDSYMNWIRQAPGKGLEWLAYISTSATYTYSADSVKGRFTISRDNAKNSLYLQMNSLRDEDTAVYYCAREGLFYDGLYGMDVWGQGTTVIVSS
VL: DILMTQSPLSLPVTPGEPASISCRSSQSLLHSNGYNYLNWYLQKPGQSPQLLIYLGSNRASGVPDRFSGSGSGTDFTLKISSVEAEDVGVYYCMQALHTPRTFGQGTKVEIKR
notes: Native human mAb from donor 210; also called TRL100014

For this experiment, the target named is T1, ALK Extracellullar Domain (ECD), generated by Trellis in mammalian cells (human, UniProt Q9UM73 19-1038).
T1 construct: extracellular domain; Recombinant ECD made in-house in mammalian cells; also called ALK ECD; extracellular domain of ALK
T1 sequence (Q9UM73 19-1038): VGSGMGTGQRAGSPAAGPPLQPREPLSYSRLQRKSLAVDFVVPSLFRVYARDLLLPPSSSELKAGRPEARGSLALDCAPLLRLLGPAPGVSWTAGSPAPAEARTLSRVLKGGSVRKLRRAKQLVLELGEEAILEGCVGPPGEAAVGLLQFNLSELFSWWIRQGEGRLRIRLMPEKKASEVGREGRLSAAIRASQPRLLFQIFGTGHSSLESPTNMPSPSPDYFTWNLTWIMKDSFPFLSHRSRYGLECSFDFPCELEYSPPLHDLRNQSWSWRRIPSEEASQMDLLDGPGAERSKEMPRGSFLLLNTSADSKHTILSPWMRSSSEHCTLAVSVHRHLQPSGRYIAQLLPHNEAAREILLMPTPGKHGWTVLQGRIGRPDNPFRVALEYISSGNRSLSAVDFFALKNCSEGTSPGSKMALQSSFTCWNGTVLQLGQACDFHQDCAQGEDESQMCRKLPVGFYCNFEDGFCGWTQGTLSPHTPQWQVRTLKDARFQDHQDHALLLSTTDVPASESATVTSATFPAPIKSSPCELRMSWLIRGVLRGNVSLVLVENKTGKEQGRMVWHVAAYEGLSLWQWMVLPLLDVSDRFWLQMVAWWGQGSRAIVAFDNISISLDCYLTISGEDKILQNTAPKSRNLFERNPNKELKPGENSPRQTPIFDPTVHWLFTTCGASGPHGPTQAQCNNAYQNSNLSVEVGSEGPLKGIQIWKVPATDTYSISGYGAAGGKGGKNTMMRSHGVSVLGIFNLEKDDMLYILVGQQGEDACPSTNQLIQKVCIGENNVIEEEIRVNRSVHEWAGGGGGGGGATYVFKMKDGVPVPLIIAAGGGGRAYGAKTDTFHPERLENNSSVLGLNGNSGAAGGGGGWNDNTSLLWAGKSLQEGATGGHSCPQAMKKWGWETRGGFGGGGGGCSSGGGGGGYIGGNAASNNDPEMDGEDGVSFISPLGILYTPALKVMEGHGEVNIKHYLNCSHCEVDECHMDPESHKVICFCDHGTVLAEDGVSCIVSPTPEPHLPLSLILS
As to the kind of experiment: adsorption ELISA on ALK ECD, serial dilutions, estimate of binding affinity. Here is the method: Purified mAbs were tested in adsorption ELISA using ALK Extracellullar Domain (ECD), generated by Trellis in mammalian cells. TRL10001 is of particular interest based on its sub-nM affinity to the target.
As for B1, the “Affinity” value was 1 nM.
The result for B2 reads 1 nM; that for B3, 75 nM.
